The source of these data is the RNAGym collection of RNA variant scans (doi:10.7554/elife.80360).

The labels stand for the following.
B1: CPEB3 Ribozyme (parent)
chain: GGGGGCCACAGCAGAAGCGUUCACGUCGCGGCCCCUGUCAGAUUCUGGUGAAUCUGCGAAUUCUGCUGU

The variants in this data set derive from B1. The experiment in a line: self-cleavage, relative activity (ratio to wild type); higher = more cleavage; co-transcriptional.
As to GGGGGCCACAGCAGAAGCGUUCACCUCGCGGCCCCUGUCAGAUUCUGGUGAAUCUGCGAAUUCAGCUGU, the self-cleavage was 0.132.

On to GGGGGCCACAGCAGAAGCGUUCACUUCACGGCCCCUGUCAGAUUCUGGUGAAUCUGCGAAUUCUGCUGU, for which the self-cleavage was determined as 0.141.

On to GGGGGCCACAGCAGAAGCGUUCACUUCCCGGCCCCUGUCAGAUUCUGGUGAAUCUGCGAAUUCUGCUGU, for which the self-cleavage was determined as 0.159.

On to GGGGGCCACAGCAGAAGCGUUCACUUCGCGGCCCCUGUCAGAUUCUGGUGAAUCUGCGAAUUCUCCUGU, for which the self-cleavage turned out to be 0.105.

Consider GGGGGCCACAGCAGAAGCGUUCACUUCGCGGCCCCUGUCAGAUACUGGUGAAUCUGCGAAUUCUGCUGU, for which the self-cleavage was 0.136.

Consider GGGGGCCACAGCAGAAGCGUUCACUUCGCGGCCCCUGUCAGAUGCUGGUGAAUCUGCGAAUUCUGCUGU, for which the self-cleavage was 0.146.

Consider GGGGGCCACAGCAGAAGCGUUCACUUCGCGGCCCCUGUCAGAUCCUGGUGAAUCUGCGAAUUCUGCUGU, for which the self-cleavage was found to be 0.105.

Consider GGGGGCCACAGCAGAAGCGUUCACUUCGCAGCCCCUGUCAGAUUCUGGUGAAUCUGCGAAUUCUGCUGU, for which the self-cleavage came out at 0.16.

As for GGGGGCCACAGCAGAAGCGUUCACUUCGCCGCCCCUGUCAGAUUCUGGUGAAUCUGCGAAUUCUGCUGU, the self-cleavage amounted to 0.14.

As to GGGGGCCACAGCAGAAGCGUUCACUUCGCGGCCCCUGUCAGAUUCUGGUGAAUCUGCGAAUUCUGCUUU, the self-cleavage amounted to 0.159.

Regarding GGGGGCCACAGCAGAAGCGUUCACUUCGCGGCCCCUGUCAGAUUCUGGUGAAUCUGCGAAUUCUGCUCU, the self-cleavage came out at 0.225.

GGGGGCCACAGCAGAAGCGUUCACUUCGCGGCCCCUGUCAGAUUAUGGUGAAUCUGCGAAUUCUGCUGU: the self-cleavage is 0.181.

Consider GGGGGCCACAGCAGAAGCGUUCACUUCGCGGCCCCUGUCAGAUUUUGGUGAAUCUGCGAAUUCUGCUGU, for which the self-cleavage was 0.156.

As for GGGGGCCACAGCAGAAGCGUUCACUUCGAGGCCCCUGUCAGAUUCUGGUGAAUCUGCGAAUUCUGCUGU, the self-cleavage worked out at 0.198.

In the case of GGGGGCCACAGCAGAAGCGUUCACUUCGGGGCCCCUGUCAGAUUCUGGUGAAUCUGCGAAUUCUGCUGU, the self-cleavage turned out to be 0.161.

Regarding GGGGGCCACAGCAGAAGCGUUCACUUCGCGGCCCCUGUCAAAUUCUGGUGAAUCUGCGAAUUCUGCUGU, the self-cleavage was 0.112.

As to GGGGGCCACAGCAGAAGCGUUCACUUCGCGGCCCCUGUCAGAUUCUGGCGAAUCUGCGAAUUCUGCUGU, the self-cleavage amounted to 0.157.

As to GGGGGCCACAGCAGAAGCGUUCACUUCGCGGCCCCUGUCAGAUUCUGGGGAAUCUGCGAAUUCUGCUGU, the self-cleavage amounted to 0.189.

Regarding GGGGGCCACAGCAGAAGCGUUCACUUCGCGGCCCCUGUCAGAUUCUGGUGAAUCUGCGCAUUCUGCUGU, the self-cleavage is 0.217.

As for GGGGGCCACAGCAGAAGCGUUCACUUCGCGGCCCCUGUCAGAUUCUGGUGAAUCUGCGUAUUCUGCUGU, the self-cleavage came out at 0.199.

On to GGGGGCCACAGCAGAAGCGUUCACUUCGCGGCCCCUGUCAGAUUCUCGUGAAUCUGCGAAUUCUGCUGU, for which the self-cleavage worked out at 0.11.

As for GGGGGCCACAGCAGAAGCGUUCACUUCGCGGCCCCUGUUAGAUUCUGGUGAAUCUGCGAAUUCUGCUGU, the self-cleavage is 0.151.

Turning to GGGGGCCACAGCAGAAGCGUUCACUUCGCGGCCCCUGUGAGAUUCUGGUGAAUCUGCGAAUUCUGCUGU, the self-cleavage is 0.124.

Regarding GGGGGCCACAGCAGAAGCGUUCACUUCGCGGCCCCUGUCAGAUUCUGGUGAAUGUGCGAAUUCUGCUGU, the self-cleavage worked out at 0.115.

With GGGGGCCACAGCAGAAGCGUUCACUUCGCGGCCCCUGUCAGAUUCUGGUGAAUUUGCGAAUUCUGCUGU, the self-cleavage is 0.121.

For GGGGGCCACAGCAGAAGCGUUCACUUCGCGGCCCCUGUCAGAUUCUGGUGAAUAUGCGAAUUCUGCUGU, the self-cleavage amounted to 0.125.

As to GGGGGCCACAGCAGAAGCGUUCACUUCGCGGCCCCUGUCAGAUUCUGGUAAAUCUGCGAAUUCUGCUGU, the self-cleavage was 0.144.

For GGGGGCCACAGCAGAAGCGUUCACUUCGCGGCCCCUGUCAGAUUCUGGUCAAUCUGCGAAUUCUGCUGU, the self-cleavage is 0.189.

Turning to GGGGGCCACAGCAGAAGCGUUCACUUCGCGGCCCCUGUCAGAUUCUGGUUAAUCUGCGAAUUCUGCUGU, the self-cleavage stood at 0.151.

Regarding GGGGGCCACAGCAGAAGCGUUCACUUCGCGGCUCCUGUCAGAUUCUGGUGAAUCUGCGAAUUCUGCUGU, the self-cleavage came to 0.137.

As for GGGGGCCACAGCAGAAGCGUUCACUUCGCGGCGCCUGUCAGAUUCUGGUGAAUCUGCGAAUUCUGCUGU, the self-cleavage stood at 0.128.

Turning to GGGGGCCACAGCAGAAGCGUUCACUUCGCGGCACCUGUCAGAUUCUGGUGAAUCUGCGAAUUCUGCUGU, the self-cleavage came out at 0.175.

GGGGGCCACAGCAGAAGCGUUCACUUGGCGGCCCCUGUCAGAUUCUGGUGAAUCUGCGAAUUCUGCUGU: the self-cleavage amounted to 0.16.

Regarding GGGGGCCACAGCAGAAGCGUUCACUACGCGGCCCCUGUCAGAUUCUGGUGAAUCUGCGAAUUCUGCUGU, the self-cleavage is 0.273.

Consider GGGGGCCACAGCAGAAGCGUUCACUCCGCGGCCCCUGUCAGAUUCUGGUGAAUCUGCGAAUUCUGCUGU, for which the self-cleavage worked out at 0.631.

For GGGGGCCACAGCAGAAGCGUUCACUUCGCGGCCCCUGUCAGAUUCUGGUGCAUCUGCGAAUUCUGCUGU, the self-cleavage is 0.212.

Turning to GGGGGCCACAGCAGAAGCGUUCACUUCGCGGCCCCUGUCAGAUUCUGGUGUAUCUGCGAAUUCUGCUGU, the self-cleavage is 0.152.

Take GGGGGCCACAGCAGAAGCGUUCACUUCGCGGCCCCUGUCAGAUUCUGGUGGAUCUGCGAAUUCUGCUGU: the self-cleavage was 0.168.

For the variant GGGGGCCACAGCAGAAGCGUUCACUUCGCGGCCCCUGUCAGAUUCUGGUGAAUCUGGGAAUUCUGCUGU, the self-cleavage turned out to be 0.151.

As to GGGGGCCACAGCAGAAGCGUUCACUUCGCGGCCCCUGUCAGAUUCUGGUGAAUCUGAGAAUUCUGCUGU, the self-cleavage came out at 0.137.

Regarding GGGGGCCACAGCAGAAGCGUUCACUUCGCGGCCCCUGUCAGAUUCUGGUGAAUCUGUGAAUUCUGCUGU, the self-cleavage came to 0.15.

GGGGGCCACAGCAGAAGCGUUCACUUCGCGUCCCCUGUCAGAUUCUGGUGAAUCUGCGAAUUCUGCUGU: the self-cleavage stood at 0.182.

In the case of GGGGGCCACAGCAGAAGCGUUCACUUCGCGCCCCCUGUCAGAUUCUGGUGAAUCUGCGAAUUCUGCUGU, the self-cleavage is 0.191.

In the case of GGGGGCCACAGCAGAAGCGUUCACUUCGCGACCCCUGUCAGAUUCUGGUGAAUCUGCGAAUUCUGCUGU, the self-cleavage was determined as 0.163.

For GGGGGCCACAGCAGAAGCGUUCACUUCGCGGCCCCUGUCAGAUUCUGGUGAAUCUGCGAAUUCUGUUGU, the self-cleavage is 0.121.

Consider GGGGGCCACAGCAGAAGCGUUCACUUCGCGGCCCCUGUCAGAUUCUGUUGAAUCUGCGAAUUCUGCUGU, for which the self-cleavage was determined as 0.155.

Turning to GGGGGCCACAGCAGAAGCGUUCACUUCGCGGCCCCUGUCAGAUUCUGAUGAAUCUGCGAAUUCUGCUGU, the self-cleavage was determined as 0.176.

As for GGGGGCCACAGCAGAAGCGUUCACUUCGCGGCCCCUGUCAGAUUCUGCUGAAUCUGCGAAUUCUGCUGU, the self-cleavage was determined as 0.215.

For the variant GGGGGCCACAGCAGAAGCGUUCACUUCGCGGCCCCUGUCAGCUUCUGGUGAAUCUGCGAAUUCUGCUGU, the self-cleavage worked out at 0.17.

With GGGGGCCACAGCAGAAGCGUUCACUUCGCGGCCCCUGUCAGUUUCUGGUGAAUCUGCGAAUUCUGCUGU, the self-cleavage was 0.163.

Turning to GGGGGCCACAGCAGAAGCGUUCACUUCGCGGCCCCUGUCAGAUUCUGGUGACUCUGCGAAUUCUGCUGU, the self-cleavage came to 0.246.

Consider GGGGGCCACAGCAGAAGCGUUCACUUCGCGGCCCCUGUCAGAUUCUGGUGAUUCUGCGAAUUCUGCUGU, for which the self-cleavage is 0.199.

For GGGGGCCACAGCAGAAGCGUUCACUUCGCGGCCCCUGUCAGAUUCUGGUGAGUCUGCGAAUUCUGCUGU, the self-cleavage was 0.146.

Turning to GGGGGCCACAGCAGAAGCGUUCACUUCGCGGCCCCUGUCAGAUUCUGGUGAAUCUGCGAAUUCUGCUGU, the self-cleavage stood at 0.172.

On to GGGGGCCACAGCAGAAGCGUUCACUUCGCGGCCCCUGGCAGAUUCUGGUGAAUCUGCGAAUUCUGCUGU, for which the self-cleavage turned out to be 0.205.

Regarding GGGGGCCACAGCAGAAGCGUUCACUUCGCGGCCCCUCUCAGAUUCUGGUGAAUCUGCGAAUUCUGCUGU, the self-cleavage amounted to 0.0933.

As for GGGGGCCACAGCAGAAGCGUUCACCUCGCGGCCCCUGUCAGAUUCUGGUGAAUCUGCGAAUUCUGCAGU, the self-cleavage came out at 0.129.

Consider GGGGGCCACAGCAGAAGCGUUCACCUCGCGGCCCCUGUCAGAUUCUGGUGAAUCUGCGAAUUCUGCGGU, for which the self-cleavage is 0.24.

In the case of GGGGGCCACAGCAGAAGCGUUCACCUCGCGGCCCCUGUCAGAUUCUGGUGAAUCUGCGAAUUCUGCUGC, the self-cleavage was found to be 0.333.

Consider GGGGGCCACAGCAGAAGCGUUCACUUCGCGGCCCCUGUCGGAUUCUGGUGAAUCUGCGAAUUCUGCUGU, for which the self-cleavage was found to be 0.114.

GGGGGCCACAGCAGAAGCGUUCACUUCGCGGCCCCUGUCCGAUUCUGGUGAAUCUGCGAAUUCUGCUGU: the self-cleavage is 0.183.

In the case of GGGGGCCACAGCAGAAGCGUUCACUUCGCGGCCCCUGUCUGAUUCUGGUGAAUCUGCGAAUUCUGCUGU, the self-cleavage amounted to 0.208.

For the variant GGGGGCCACAGCAGAAGCGUUCACUUCGCGGCCCCUGUCAGAUUCUGGUGAAACUGCGAAUUCUGCUGU, the self-cleavage stood at 0.166.

In the case of GGGGGCCACAGCAGAAGCGUUCACUUCGCGGCCCCUGUCAGAUUCUGGUGAACCUGCGAAUUCUGCUGU, the self-cleavage stood at 0.112.

As for GGGGGCCACAGCAGAAGCGUUCACUUCGCGGCCCCUGUCAGAUUCUGGUGAAUCUGCAAAUUCUGCUGU, the self-cleavage is 0.214.

As to GGGGGCCACAGCAGAAGCGUUCACUUCGCGGCCCCUGUCAGAUUCUGGUGAAUCUGCCAAUUCUGCUGU, the self-cleavage was 0.107.

For the variant GGGGGCCACAGCAGAAGCGUUCACUUCGCGGCCCGUGUCAGAUUCUGGUGAAUCUGCGAAUUCUGCUGU, the self-cleavage turned out to be 0.165.

Take GGGGGCCACAGCAGAAGCGUUCACUUCGCGGCCCAUGUCAGAUUCUGGUGAAUCUGCGAAUUCUGCUGU: the self-cleavage was determined as 0.155.

For the variant GGGGGCCACAGCAGAAGCGUUCACUUCGCGGGCCCUGUCAGAUUCUGGUGAAUCUGCGAAUUCUGCUGU, the self-cleavage was determined as 0.158.

GGGGGCCACAGCAGAAGCGUUCACUUCGCGGCCCCAGUCAGAUUCUGGUGAAUCUGCGAAUUCUGCUGU: the self-cleavage turned out to be 0.125.

In the case of GGGGGCCACAGCAGAAGCGUUCACUUCGCGGCCCCCGUCAGAUUCUGGUGAAUCUGCGAAUUCUGCUGU, the self-cleavage worked out at 0.103.

In the case of GGGGGCCACAGCAGAAGCGUUCACUUCGCGGCCCCUGUCAGAUUCCGGUGAAUCUGCGAAUUCUGCUGU, the self-cleavage turned out to be 0.179.

For GGGGGCCACAGCAGAAGCGUUCACUUCGCGGCCCCUGUCAGAUUCAGGUGAAUCUGCGAAUUCUGCUGU, the self-cleavage is 0.105.

As for GGGGGCCACAGCAGAAGCGUUCACUUCGCGGCCCCUGUCAGAUUCGGGUGAAUCUGCGAAUUCUGCUGU, the self-cleavage is 0.205.

For GGGGGCCACAGCAGAAGCGUUCACUUCGCGGCCUCUGUCAGAUUCUGGUGAAUCUGCGAAUUCUGCUGU, the self-cleavage amounted to 0.151.

For GGGGGCCACAGCAGAAGCGUUCACUUCGCGGCCGCUGUCAGAUUCUGGUGAAUCUGCGAAUUCUGCUGU, the self-cleavage was determined as 0.196.

On to GGGGGCCACAGCAGAAGCGUUCACUUCGCGGCCCCUGUCAGAUUCUGGUGAAUCUGCGAAUUAUGCUGU, for which the self-cleavage was 0.129.

As for GGGGGCCACAGCAGAAGCGUUCACUUCGCGGCCCCUGUCAGAUUCUGGUGAAUCUGCGAAUUUUGCUGU, the self-cleavage worked out at 0.173.
